Assay results as given in a protein production outcome set (Wang et al. 2014).

Assay: label from the status in PepcDB records

Sequence	protein production
MYYLFIFEMLWLLFVIVFVSFLSFSDFDRKKVNYFSVVIVGILLSITAGFRNVGGVDTDYAIYKNHYNGELGSYSYELFEPGYNTVVWLGNIVGLSFNLFVFILTSICLLLLLKLIFKYSKYPMLSVMIYLGTYFLFYNMVLMRQMVSVVMFLYCINYTIEKKYIKCLLCFLVGLSFHLSMIVFLPAFFVLRYFKLNIWNIIFILIIGVFLKIVGAINLVMFVGGVIESRMANYLAGDGFTLNIMEYIKMIIIICAILILFPKLIGDYFNEILIKSYCVFFILIFAFGDIEIFFRIAMYFDLVILFLIPILFDKISMTRFSRITIYTLVVIFFAFSFIYRVHNFDNGEFYQYKFFFLE	failed
NAVHFGAGNIGRGFIGKLLADAEVEVTFADVDVPLVDQLSHKQEYKVKVVGTECKIDTVTHVTAVNSASEDVIDRIVKTDLVTTAVGPNVLDIIAKTIAKGIAKRFEAGNDAPLNIIACENMVRGTTHLKGEVYKHLDKSLHAKADELVGFVDSAVDRIVPPAEAANDDPLEVTVESFSEWIVDEQQFKGDIPNIAGMEKTNN	not failed
NDALRVMAGDLQRSEEKFRSMTDAAHDAVFMLNNEGKIVYRNTAAETLFGFSREEYGDQLFWELISPEFADFNIHDVCEMMPDEALPDFNSETRVRQIEGLRKDGSLVPIEISRGCVHIESVHHTVVIARDIT	failed
NFATGTIATDPLNDSQVAVIASISKEMPGISISTSWDRKVLETSLSSIVGSVSSEKAGLPAEEAEAYLKKGYSLNDRVGTSYLEKQYEETLQGKRSVKEIHLDKYGNMESVDTIEEGSKGNNIKLTID	failed
NFNPPTRRNWESNYFGMPLQDLVTAEKPIPLFVEKCVEFIEDTGLCTERLYRVSGNKTDQENIQKQFVQDHNINLVSMEVTVNAVAGALKAFFADLPDPLIPYSLHPELLEAAKIPDKTERLHALKEIVKKFHPVNYDVFRYVITHLNRVSQQHKINLMTADNLSICFGQPLMRPDLKSMEFLSTTKIHQSVVETFIQQCQFFFYNGEIVETTNIVAPPPPSNPG	failed
NFVPGMEFSMADASSIAIIGGADGPTAIFLASQLSPDLLGAIAVAAYSYMALVPIIQPPIMKALTTPEERKIKMAQLRHVGKTEKIVFPLV	failed
NGSERGVLLSVIDRTEERHAKGLRRQVDHRFDKLVGTISEGVLLMDDTGVFRDGNEAAQNILGRSLDEIIGSRFDDDIWNGLREDGSPLPNVEFPFWRAYVEREPVQEEVMGVYPPDAPPRWIRVNAQPLFRSGQEAPYAVLVSFDDITDERLKEEALQTSRDLLSSVLSSSL	failed
NHSHSLAVIGSRNATQYTSQSLNYLFPSFRQLNMAIVSGLARGADSVAHQTALKYLLPTIGVLGFGHCYHYPKATLNLRTKVERNGLVISEYPPFSPISKHKFPERNRLISGLSRGVLITEAEERSGSQITIDCALEQNRNVYVLPGSMFNKMTKGNLRRINEGAQVVIDESSILYDYLF	failed
NIDLDVQNMAQNALKFGYDEIVKRDKDANLSTLNGAMVVVNHQSGDVLALVGGVDYEKSNYNRATQSMRQPGSSFKPFVYQVAINLGYSPMSEIADISRIFEGGAGNNEDWKPKNEGGKFLGLITLKEALTRSRNLATINLALDMGLDVLYSKLMEFGFKDIPPNLSIVLGSFGISPLEYSKFYTMFGNYGTIKDPQIIRQVQDKTGKTIMEFNSNERKVSDEAQSFLVLDMMRNVVEKGTGRNARVKDIEIAGKTGTTNKSVDAWFCGLTPEIEAIIWYGNDNNKPMRYTEGGARTAAPVFREFLTQYIEKFPDTTR	failed
NIEQLSQSLEHMANQAATLDRQRGEHHVPLFDERLFSCRSRLLTPCVKEAKSTLDAIIREQNENKLTALRAEYLTERLVAQIGAIQREISTTKIRKNEIKHSSHFRKPINVLYQELAQHQEWARRLREMVLEKERAVETAPSFMRAEAQKVLLATEQRLARCEAALLKLENQITHREK	failed
NKKIYVGMTADIMHPGLIHIIHEATKYGDVIVGLLTDKAIAEHKRLPYLTYDQRKEVVENIKGVCEVVPQEDWSYVPNLEKLKPDYIIHGDDWKTGPLREVREQVFEVMNAQGGKVIEIPYTRGINSSSLDKDIKAIGT	failed
NKYNKIANELIKIIGEDNIISITHCATRLRVMVKDREIINDKKVEKVDEVKGVFFTSGQYQIILGTGIVNKVYAEVEKMGLKTLSKKEQDEL	not failed
NLNAIQNFGAMNILCTDKTGTLTCDKIVLEKYINADGSDDHSRRILRHAFLNSYFQTGLKNLMDKAILAHVREENLEHLTEGYTKIDEIPFDFSRRRMSVVIEDQQGKRQIITKGAVEEMLNICSHAEFNGQVYELTDKLRSKAKRISDDMNRNGMRVLAIAQKSFISKARDFAVTDEDEMVLIGYLAFLDP	failed
NLNSIQNFGAIDILCTDKTGTLTQDKVVLEYHLNVNGEDDTRVLRHAYLNSYFQTGYKNLMDLAIIHKTEEEEAADSRLIDLSENYVKVDEIPFDFTRRRLTTVVQDNKGKTQMVTKGAVEEMLSICAFAECNGGVQPLTDDVRYRILETVDNLNDKGFRVLAIAQKSNPSPIGAFGVKDECDMVLIGYLAFLDP	failed
NNLFVYCEIEDGIVADVSLELLTKGRSLANQLGCQLEAVVAGTGLKDIEKQILPYGVDKLHVFDGEGLYPYTSLPHTSILVNLFKEEQPQICLMGATVIGRDLGPRVSSALTSGLTADCTSLEIGDHEDKKEGKVYKNLLYQIRPAFGGNIVATIVNPEHRPQMATVREGVMKKAILAADYKGEVIHHDVKKYVADTDYVVKVIERHVEKAKNN	failed
NQPKRALRYNKRFMGDRRYMSFWSWLTTGNFVNKEFSYYKVPMELDVFDQDAFAESGVPFYVVATDIKTGKPDYIKIDHVFEQMEALRASSALPLVSEIVEYKGKRYMDGGLADSLPI	failed
NQTRLNKLQKTLVDKQIDFAFISDYKTIQYITGFGSNPYERILAMIVFADKDPFIFAPALEVEVVKSVGWPYDLYGYQDNEDGLEMIYDHIKERSANPKKIATEQGNLTLSRFNRLQAAFPDADYSFNLTPVIEHQR	not failed
NRWITRPKFTHFDLHTLNWDLCLTQANHKSGLALDMLRMLLDSLPQTVSAIEAALSQNDQVTMLSTIHKLHGASCYCGVPTTQRLCQEIESALKREARVEDLEPEILELLDELTKVESAAKQVLSQLSAEITDDQKNGLL	failed
NSESKSTPKRLHVSNIPFRFRDPDLRQMFGQFGKILDVEIIFNERGSKGFGFVTFENSADADRAREKLHGTVVEGRKIEVNNATARVMTN	not failed
NYDPFVRHSVTVKADRKTAFKTFLEGFPEWWPNNFRTTKVGAPLGVDKKGGRWYEIDEQGEEHTFGLIRKVDEPDTLVIGWRLNGFGRIDPDNSSEFTVTFVADGQKKTRVDVEHTHFDRMGTKHAKRVRNGMDKGWPTILQSFQDKIDEEGAKK	not failed
PAIDYKTAFHLAPIGLVLSRDRVIEDCNDELAAIFRCARADLIGRSFEVLYPSSDEFERIGERISPVMIAHGSYADDRIMKRAGGELFWCHVTGRALDRTAPLAAGVWTFEDLSATRRVA	not failed
PDGPTQLRALNLTEGFAVLHWKPPQNPVDTYDIQVTAPGAPPLQAETPGSAVDYPLHDLVLHTNYTATVRGLRGPNLTSPASITFTTGLEAPRDLEAKEVTP	not failed
PDHGKAEWFRGADGATLRAATFFPAGPARGSVVLSPGRSEPLEKYFEVVDDLLARDFAVLLHDWRGQGLSARALPDRLKGHARGFKTFVSDYEALLDAFETRMPKPWIAVSHSMGGCLTTLALAQGETRFAAAVLSAPMLGLNTAGVPPWLARPLAFVMSRVGLAGEYVQTPYDPLTQTFQGDGLTHDETRYDRYQAQLRAHPEIALGGMTWGWADFAISACAWLRRSKSVEAIAIPVIILGAELDNRVLNADSESIARRIPKGRYVEVPGAFHEILVETDARRALFWQAFDE	failed
PDIGTFTVRPLDPTRDAELLHGWVTHPKSAFWMMQEARLHDVEREYMAIAASEYHDAFLGLLDDEPVFLMEKYDPAHVELVGLYEPEPGDVGMHFLVAPTDTPVHGFTRAVITAVMEHLFADPATRRVVVEPDVGNKAVHALNEAVG	failed
PDLYNHAIVIGYGRVGSMLAQLLQSRHVPLLVIDDNSEHVLKAHAAGIPAIRGSAAADLVLAEAHPERAKIAVLAIPQPLEAGEILAKLRALNPELTLVARAQNDAEVKHLLGHGADATVVAEHEMAHSLAEMVLSSTNHPNSTRLQPAIA	failed
